From patent publication US6881547B1, “Methods and reagents for treating autoimmune disorders” (priority 2001, dated 2005)

Experiments:
[1] = molecular target: rMBP, recombinant 21 kDa human myelin basic protein (UniProt P02686)
[2] = test system: 27-kDa conformer of the native human α3(IV)NC1 domain
[3] = test system: 22-25-kDa conformers of the native human α3(IV)NC1 domain
[4] = test system: T1, FLAG-tagged recombinant GPBP (rGPBP)
T1 sequence: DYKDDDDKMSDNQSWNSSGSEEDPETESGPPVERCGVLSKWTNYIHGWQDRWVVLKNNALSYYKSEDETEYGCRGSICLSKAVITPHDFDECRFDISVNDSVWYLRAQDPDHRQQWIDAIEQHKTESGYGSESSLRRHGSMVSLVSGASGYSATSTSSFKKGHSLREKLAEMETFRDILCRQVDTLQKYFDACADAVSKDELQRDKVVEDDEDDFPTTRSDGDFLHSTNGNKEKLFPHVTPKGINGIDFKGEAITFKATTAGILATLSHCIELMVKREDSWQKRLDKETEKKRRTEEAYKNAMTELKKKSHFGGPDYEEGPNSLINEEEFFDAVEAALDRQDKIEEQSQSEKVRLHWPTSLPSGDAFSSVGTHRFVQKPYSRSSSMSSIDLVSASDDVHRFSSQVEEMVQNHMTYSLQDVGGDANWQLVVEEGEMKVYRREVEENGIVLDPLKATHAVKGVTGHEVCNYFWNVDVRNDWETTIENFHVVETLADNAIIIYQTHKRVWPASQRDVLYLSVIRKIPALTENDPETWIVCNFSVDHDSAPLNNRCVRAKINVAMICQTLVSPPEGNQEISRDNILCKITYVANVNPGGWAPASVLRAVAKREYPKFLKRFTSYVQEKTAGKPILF

[5] = test system: prokaryotic human recombinant α3(IV)NC1
[6] = test system: rMBPΔII, recombinant 18.5 kDa human myelin basic protein
[7] = molecular target: T2, β-galactosidase-derived fusion protein of clone HeLa1 containing the N-terminal 150 residues of GPBP (human, UniProt Q5R6M6 1-150 (Pongo abelii entry)); test: filter screen of λ-gt11 expression libraries with GPpep1, detected with M3/1A
T2 construct: also called HeLa1 fusion protein; not shown: β-galactosidase part of the λ-gt11 fusion
T2 sequence: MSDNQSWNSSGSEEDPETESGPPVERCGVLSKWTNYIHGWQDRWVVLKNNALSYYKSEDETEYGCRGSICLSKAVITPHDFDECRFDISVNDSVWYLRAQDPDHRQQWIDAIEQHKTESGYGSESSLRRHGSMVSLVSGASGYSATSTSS
Protocol: Isolation and characterization of cDNA clones encoding human GPBP-Several human λ-gt11 cDNA expression libraries (eye, fetal and adult lung, kidney and HeLa S3, from CLONTECH) were probed for cDNAs encoding proteins interacting with GPpep1. Nitrocellulose filters (Millipore) prepared following standard immunoscreening procedures were blocked and incubated with 1–10 nmoles per ml of GPpep1 at 37° C. Specifically bound GPpep1 was detected using M3/1A monoclonal antibodies (7). A single clone was identified in the HeLa-derived library (HeLa1). Specificity of fusion protein binding was confirmed by similar binding to recombinant eukaryotic human GP antigen. The EcoRI cDNA insert of HeLa1 (0.5-kb) was used to further screen the same library and to isolate overlapping cDNAs. The largest cDNA (2.4-kb) containing the entire cDNA of HeLa1 (n4') was fully sequenced.

[8] = molecular target: T3, Human recombinant GP antigen (rGP) produced in 293 cells
T3 chain: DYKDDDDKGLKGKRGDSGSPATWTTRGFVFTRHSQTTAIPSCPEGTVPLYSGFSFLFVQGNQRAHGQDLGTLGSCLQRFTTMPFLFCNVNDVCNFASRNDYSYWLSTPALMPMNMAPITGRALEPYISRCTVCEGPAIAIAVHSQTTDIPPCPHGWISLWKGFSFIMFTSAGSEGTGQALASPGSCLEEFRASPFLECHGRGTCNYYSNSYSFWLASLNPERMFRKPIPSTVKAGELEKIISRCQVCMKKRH

[9] = molecular target: T4, rMBP, recombinant 21 kDa human myelin basic protein, P02686
T4 chain: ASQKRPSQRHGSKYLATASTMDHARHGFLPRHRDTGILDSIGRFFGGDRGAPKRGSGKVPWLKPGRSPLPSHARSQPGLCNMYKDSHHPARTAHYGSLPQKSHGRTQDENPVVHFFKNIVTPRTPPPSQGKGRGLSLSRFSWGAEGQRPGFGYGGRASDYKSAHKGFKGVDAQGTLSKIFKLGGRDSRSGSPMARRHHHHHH

[10] = molecular target: T5, alkaline phosphatase-treated fα3
T5 chain: T3 chain

GPpep1 = molecular target: T6, GPpep1
T6 chain: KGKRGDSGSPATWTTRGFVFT

GPpep1Ala^9 = molecular target: T7, GPpep1Ala^9
T7 chain: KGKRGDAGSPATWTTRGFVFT

[11] = molecular target: T8, rMBPΔII, recombinant 18.5 kDa human myelin basic protein
T8 chain: T4 chain

[12] = molecular target: T9, prokaryotic human recombinant α3(IV)NC1
T9 chain: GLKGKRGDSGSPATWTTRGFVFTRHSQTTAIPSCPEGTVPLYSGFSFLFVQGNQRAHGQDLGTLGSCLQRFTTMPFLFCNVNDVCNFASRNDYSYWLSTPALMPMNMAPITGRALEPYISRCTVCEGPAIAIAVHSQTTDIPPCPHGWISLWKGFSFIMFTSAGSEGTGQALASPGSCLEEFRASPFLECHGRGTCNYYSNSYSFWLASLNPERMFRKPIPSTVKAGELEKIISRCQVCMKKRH

[13] = molecular target: T10, native human α3(IV)NC1 domain (GP antigen) from renal cortex, monomer fraction of the hexamer
T10 chain: T9 chain

[14] = molecular target: T11, native bovine α3(IV)NC1 domain (bovine GP antigen), Q28084
T11 chain: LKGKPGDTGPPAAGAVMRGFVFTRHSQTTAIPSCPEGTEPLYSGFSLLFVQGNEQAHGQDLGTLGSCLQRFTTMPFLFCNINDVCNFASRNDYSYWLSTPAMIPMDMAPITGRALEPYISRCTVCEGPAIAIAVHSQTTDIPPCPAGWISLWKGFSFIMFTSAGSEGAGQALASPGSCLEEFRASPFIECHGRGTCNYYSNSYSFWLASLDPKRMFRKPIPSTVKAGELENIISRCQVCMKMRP

[15] = molecular target: T12, FLAG-tagged recombinant GPBP (rGPBP) (human, UniProt Q9Y5P4 1-624, phosphoserine, phosphothreonine and phosphotyrosine present, sites not given); test: far-Western on in-blot renatured human monomers, 30 ng/µl recombinant GPBP, Mab14 detection
T12 construct: Made in Pichia pastoris or 293 cells; also called FLAG-n4′
T12 sequence: T1 sequence
Protocol: Physical, chemical and immunochemical methods. Lnunoblot studies were performed as described in Example 4. For far-Western, after protein transfer the membrane was blocked with non-fat milk, incubated with 30 ng/μl of fα3 or recombinant GPBP and the bound recombinant material detected with α-FLAG or Mab14, respectively.

rGPΔIII/IV/V, sequence (chain, as listed by the source mutant): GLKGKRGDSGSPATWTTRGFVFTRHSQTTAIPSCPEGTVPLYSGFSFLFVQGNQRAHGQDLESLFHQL
rGPΔIII, sequence (chain, as listed by the source mutant): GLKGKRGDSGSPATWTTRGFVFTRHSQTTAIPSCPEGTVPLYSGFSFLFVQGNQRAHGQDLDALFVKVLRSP
rGPΔV, sequence (chain, as listed by the source mutant): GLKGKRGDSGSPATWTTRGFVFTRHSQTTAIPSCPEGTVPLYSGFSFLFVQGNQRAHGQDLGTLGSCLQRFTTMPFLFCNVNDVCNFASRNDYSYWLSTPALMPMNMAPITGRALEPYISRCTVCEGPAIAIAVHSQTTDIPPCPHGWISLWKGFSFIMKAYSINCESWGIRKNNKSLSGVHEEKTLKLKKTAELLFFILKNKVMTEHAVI

Question: Which results are given for “catalytic subunit of the cAMP-dependent protein kinase”?
Answer: ^32P incorporation, phosphorylation by PKA (rGPΔIII): The alternative forms incorporated ^32P more efficiently than the primary GP antigen; ^32P incorporation, phosphorylation by PKA (rGPΔIII/IV/V): The alternative forms incorporated ^32P more efficiently than the primary GP antigen; in vitro phosphorylation by PKA [1]: MBPΔII was a better substrate than MBP, and Ser^8 was the major phosphorylation site; ^32P incorporation, phosphorylation by PKA (rGPΔV): The alternative forms incorporated ^32P more efficiently than the primary GP antigen; ^32P incorporation, phosphorylation by PKA [2]: At 150 mM ATP, the major ^32P incorporation occurred in the 27-kDa conformer; ^32P incorporation, phosphorylation by PKA [3]: when the ATP concentration was lowered to extracellular-like concentrations (0.15 mM), the 22-kDa conformer was preferentially labeled; in vitro phosphorylation [4]: Bovine cPKA phosphorylates GPBP in vitro (not shown); ^32P incorporation, phosphorylation by PKA [5]: all four recombinant antigens were phosphorylated but to very different extents; in vitro phosphorylation by PKA [6]: MBPΔII was a better substrate than MBP, and Ser^8 was the major phosphorylation site

Question: Does KGKRGDSGSPATWTTRGFVFT [GPpep1] bind [7]?
Answer: binds

B1: FLAG-tagged recombinant GPBP (rGPBP) (protein)
chain: T1 sequence
Question: How did the “^32P incorporation, in vitro phosphorylation” value [8] turn out when B1 was run?
Answer: Affinity-purified rGPBP phosphorylates all human-derived material to a different extent

Question: And the “^32P incorporation, in situ phosphorylation on blot” value [9]?
Answer: GPBP preferentially phosphorylated MBP

Question: What about the “monomeric Mab3-reactive material after oligomerization assay” value [10] of the same molecule?
Answer: the addition of GPBP to the phosphatase-treated samples resulted in a further reduction in the levels of monomeric material reactive with Mab3

Question: And the “^32P incorporation, in vitro phosphorylation” value (GPpep1)?
Answer: Affinity-purified rGPBP phosphorylates all human-derived material to a different extent

Question: What about the “^32P incorporation, in vitro phosphorylation” value (GPpep1Ala^9) of the same molecule?
Answer: The lower ^32P incorporation displayed by GPpep1Ala9 when compared with GPpep1

Question: What about the “^32P incorporation, in situ phosphorylation on blot” value [11] of the same molecule?
Answer: little phosphorylation of MBPΔII was observed

Question: And the “disruption of disulfide-based aggregates, Western blot” value [12]?
Answer: GPBP and, to a lesser extent GPBPΔ26 disrupted disulfide-based high molecular weight aggregates characteristic of recombinant material representing human α3(IV)NC1 produced in bacteria

Question: What about the “^32P incorporation, in vitro phosphorylation” value [13] of the same molecule?
Answer: Affinity-purified rGPBP phosphorylates all human-derived material to a different extent

Question: What about the “^32P incorporation, in vitro phosphorylation” value [14] of the same molecule?
Answer: no appreciable ^32P-incorporation was observed in the bovine-derived substrate

Question: What about the “conformers and oligomers after DTT consumption, Western blot” value [14] of the same molecule?
Answer: during DTT consumption GPBP catalyzed specific conformational isomerization reactions over the 27-kDa conformer

B2: 22-25-kDa conformers of the native human α3(IV)NC1 domain (other)
chain: T9 chain
modifications: phosphoserine, highest Ser(P) content among the conformers; sites not given
notes: also called 22-25-kDa polypeptides; 22-kDa conformer
Question: Does B2 bind [15]?
Answer: binds
